Test results: PMC10397247

Legend:
Test in all cases: two-hybrid library CCmax;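 further: natural log of median RNA to DNA barcode read ratio; higher means stronger binding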
Core_NINN-es_KEEE = target: T1, Core_NINN-es_KEEE; conditions: mean of both orientations
T1 chain: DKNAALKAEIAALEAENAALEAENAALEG

4H1040-AA = target: T2, 4H1040-AA
T2 chain: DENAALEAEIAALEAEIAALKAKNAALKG

4H1262-AA = target: T3, 4H1262-AA; conditions: mean of both orientations
T3 chain: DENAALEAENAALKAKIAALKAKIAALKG

4H133-AA = target: T4, 4H133-AA; conditions: mean of both orientations
T4 chain: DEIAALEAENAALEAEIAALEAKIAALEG

4H1349-AA = target: T5, 4H1349-AA; conditions: mean of both orientations
T5 chain: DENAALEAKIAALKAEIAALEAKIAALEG

4H1384-AA = target: T6, 4H1384-AA; conditions: mean of both orientations
T6 chain: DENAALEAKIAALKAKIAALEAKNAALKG

4H1449-AA = target: T7, 4H1449-AA; conditions: mean of both orientations
T7 chain: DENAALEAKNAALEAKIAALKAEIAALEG

4H1593-AA = target: T8, 4H1593-AA; conditions: mean of both orientations
T8 chain: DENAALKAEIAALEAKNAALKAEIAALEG

4H1878-AA = target: T9, 4H1878-AA; conditions: mean of both orientations
T9 chain: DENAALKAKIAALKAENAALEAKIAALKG

4H235-AA = target: T10, 4H235-AA; conditions: mean of both orientations
T10 chain: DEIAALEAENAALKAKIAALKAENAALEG

4H249-AA = target: T11, 4H249-AA; conditions: mean of both orientations
T11 chain: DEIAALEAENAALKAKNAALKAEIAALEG

4H2580-AA = target: T12, 4H2580-AA; conditions: mean of both orientations
T12 chain: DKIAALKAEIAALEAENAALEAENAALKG

4H2604-AA = target: T13, 4H2604-AA; conditions: mean of both orientations
T13 chain: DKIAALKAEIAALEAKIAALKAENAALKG

4H2621-AA = target: T14, 4H2621-AA; conditions: mean of both orientations
T14 chain: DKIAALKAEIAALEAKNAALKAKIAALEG

4H2760-AA = target: T15, 4H2760-AA; conditions: mean of both orientations
T15 chain: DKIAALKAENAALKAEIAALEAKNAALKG

4H2774-AA = target: T16, 4H2774-AA; conditions: mean of both orientations
T16 chain: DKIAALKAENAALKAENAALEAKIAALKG

4H2903-AA = target: T17, 4H2903-AA; conditions: mean of both orientations
T17 chain: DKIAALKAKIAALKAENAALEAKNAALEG

4H2947-AA = target: T18, 4H2947-AA; conditions: mean of both orientations
T18 chain: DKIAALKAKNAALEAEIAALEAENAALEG

4H2961-AA = target: T19, 4H2961-AA; conditions: mean of both orientations
T19 chain: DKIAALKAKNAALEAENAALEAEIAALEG

4H3049-AA = target: T20, 4H3049-AA; conditions: mean of both orientations
T20 chain: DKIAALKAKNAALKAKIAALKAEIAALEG

4H3094-AA = target: T21, 4H3094-AA; conditions: mean of both orientations
T21 chain: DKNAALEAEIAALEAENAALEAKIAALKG

4H324-AA = target: T22, 4H324-AA; conditions: mean of both orientations
T22 chain: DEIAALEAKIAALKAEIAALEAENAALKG

4H341-AA = target: T23, 4H341-AA; conditions: mean of both orientations
T23 chain: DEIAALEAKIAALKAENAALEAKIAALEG

4H3449-AA = target: T24, 4H3449-AA; conditions: mean of both orientations
T24 chain: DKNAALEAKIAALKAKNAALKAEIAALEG

4H3619-AA = target: T25, 4H3619-AA; conditions: mean of both orientations
T25 chain: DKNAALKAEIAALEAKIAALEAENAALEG

4H3629-AA = target: T26, 4H3629-AA; conditions: mean of both orientations
T26 chain: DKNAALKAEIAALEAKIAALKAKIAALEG

4H3777-AA = target: T27, 4H3777-AA; conditions: mean of both orientations
T27 chain: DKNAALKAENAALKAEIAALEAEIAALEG

4H380-AA = target: T28, 4H380-AA; conditions: mean of both orientations
T28 chain: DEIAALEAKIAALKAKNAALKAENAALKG

4H3915-AA = target: T29, 4H3915-AA; conditions: mean of both orientations
T29 chain: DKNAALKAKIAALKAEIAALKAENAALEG

4H3974-AA = target: T30, 4H3974-AA; conditions: mean of both orientations
T30 chain: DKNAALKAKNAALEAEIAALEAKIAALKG

4H432-AA = target: T31, 4H432-AA; conditions: mean of both orientations
T31 chain: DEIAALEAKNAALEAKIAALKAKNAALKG

4H446-AA = target: T32, 4H446-AA; conditions: mean of both orientations
T32 chain: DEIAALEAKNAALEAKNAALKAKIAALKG

4H63-AA = target: T33, 4H63-AA; conditions: mean of both orientations
T33 chain: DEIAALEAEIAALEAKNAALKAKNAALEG

Core_INNN-es_KEKE = target: T34, Core_INNN-es_KEKE; conditions: mean of both orientations
T34 chain: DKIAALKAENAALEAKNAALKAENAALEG

Core_IIIN-es_KKKE = target: T35, Core_IIIN-es_KKKE; conditions: mean of both orientations
T35 chain: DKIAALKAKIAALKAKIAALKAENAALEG

Binder: DENAALEAKIAALKAKNAALKAKNAALKG [Core_NINN-es_EKKK]
- interaction score (Core_NINN-es_KEEE): 2.12

Binder: DENAALEAEIAALEAEIAALKAKNAALKG [4H1040-AA]
- interaction score (4H1040-AA): 0.802
- interaction score (4H1262-AA): 1.1
- interaction score (4H133-AA): -1.47
- interaction score (4H1349-AA): 0.263
- interaction score (4H1384-AA): 0.28
- interaction score (4H1449-AA): 0.618
- interaction score (4H1593-AA): -1.27
- interaction score (4H1878-AA): -0.752
- interaction score (4H235-AA): -1.14
- interaction score (4H249-AA): -0.999
- interaction score (4H2580-AA): 1.19
- interaction score (4H2604-AA): 0.338
- interaction score (4H2621-AA): -0.66
- interaction score (4H2760-AA): -1.46
- interaction score (4H2774-AA): -0.661
- interaction score (4H2903-AA): 1.05
- interaction score (4H2947-AA): -1.06
- interaction score (4H2961-AA): -1.24
- interaction score (4H3049-AA): 1.34
- interaction score (4H3094-AA): -1.03
- interaction score (4H324-AA): 1.68
- interaction score (4H341-AA): -0.876
- interaction score (4H3449-AA): -0.935
- interaction score (4H3619-AA): 0.716
- interaction score (4H3629-AA): 1.28
- interaction score (4H3777-AA): -0.948
- interaction score (4H380-AA): 0.307
- interaction score (4H3915-AA): 2.34
- interaction score (4H3974-AA): 0.222
- interaction score (4H432-AA): -1.63
- interaction score (4H446-AA): -1.4
- interaction score (4H63-AA): -1.26

Binder: DEIAALEAKNAALKAENAALEAKNAALKG [Core_INNN-es_EKEK]
- interaction score (Core_INNN-es_KEKE): 2

Binder: DEIAALEAEIAALEAEIAALEAKNAALKG [Core_IIIN-es_EEEK]
- interaction score (Core_IIIN-es_KKKE): 2.19
